Test: soluble on expression in E. coli; label from the status in PepcDB or PDB records

Sequence	soluble on expression in E. coli
MFFIRTAGLRDIEPVRTLLATTWHATYDAIYGADKVNELIAVWHSPQAMKDRVEKKGGEFLVADDGKRIGGMAYGSMSTKMAKTALLHQLYVAPDLQRQGVGRDLFAELETCFPDAEIMRLEVEPKNTVAIAFYEGVGFVEVDRIERMAGIEGLPGIVMEKSLTR	not soluble
MSVVALVLAAGSSVRFGADKRRSLMADGRSLLVHSVESACAVFDDVRVVLREGERGVDLGLPARCRVVSSPNFTLGMGHSLAAGAASLADSEAQAVAILLGDMPWVASATLDLLAREASGSTIVLPCHAGRQGHPVLFGRDFWPALARLKGDEGARSVVKANPAVCVRLEVQDAGVLQDVDRPDAVRPLEHHHHHH	soluble
MAHHHHHHMVSGFVEFEILRGKNYPQTEDDPNPCTTQVTVSVVDALSGAVLSRAQLSSIQQNSNAPFYNDTLNFRVEDAPEDVCLSISVSEHSRQKIPFVLFYGKQIIGLSKLKAKQRFVIPLFSGEEGTQQVEIGADTLDLESSGKVPFLSARIQFTKDKVFDKTDPYSDVDVSGKGLSFDGKNQLVPEGTQYVWLRLKSDKKWTNSFQYELSVAWRSRAPLEAENQGNTKSRKGTTGGMAAISAEPDSARTLGDIIIKKWCCRRTHQVLTRVCITAEKYGNKVTDLTFTPKEEVEFRTNKKERCVFLEQICKKRLEDACSNCLRQWLNRLWILFVTGVDSDPAEARALSYEVRKAVHDAQFTEADAIILQACLLFSFIPSLKYEVCQALSESDYQAAQSEKKIEVGALESPQCRVTPSQEMFTRVFISFVGSLLDTLTEAEIAKAAAEFKPAIWDAQQRIAKGAKSTIGSCKKKYEGSIFKGTGIHIDHLDKLGRRKQVPKFV	soluble
MTSRTPLVSVLPDFPWDSLASAKAKAASHPDGIVNLSVGTPVDPVAPSIQIALAEAAGFSGYPQTIGTPELRAAIRGALERRYNMTKLVDASLLPVVGTKEAIALLPFALGISGTVVIPEIAYPTYEVAVVAAGCTVLRSDSLFKLGPQIPSMMFINSPSNPTGKVLGIPHLRKVVKWAQENNVILAADECYLGLGWDDENPPISILDPRVCDGDHTNLIAIHSLSKTSNLASYRAGYLVGDPALIGELTEVRKNLGLMVPFPIQQAMIAALNDDDQEAGQKLTYAIRRAKLMRALLESGFQVDNSEAGLYLWATREEPCRDTVDWFAERGILVAPGDFYGPRGAQHVRVAMTETDERVDAFVSRLS	soluble
MGSDKIHHHHHHMIRIENISKQNSHRLLFIEASAALNKGEKIGLVGPNGAGKTTLFRMITGEELPDEGQVATEKGVTIGYFNQDVGEMSGRSAVAEVMDGAGPVSTVAAELRELEGAMSDPDRMDEMDAIIERYGEVQARYEELDGYALEGRAREVLDGLSFSQEMMDGDVGKLSGGWKMRVALARILLMRPDVMLLDEPSNHLDLESLIWLESFLKNYDGALLMTSHDREFMNRIVTKIIEIDGGSLTSYSGDYGFYEGQRAQNEKQQQAQFERQQAMLAKEIKFIERFKARASHAAQVQSRVKKLDKIDRVEPPRRRQTVAFDFLPAPRSGDDVINIKNVHKAYGSRTIYQGLDFMVRRRERWCIMGINGAGKSTLLKLVAGTTEPDQGTVSIGASVKLGYFAQHAMDVLDGDSTVLQWLEESFPKAGQAPLRALAGCFGFSGDDVEKRCRVLSGGEKARLVMAAMLFDPPNLLVLDEPTNHLDLDTKEMLIKALSAYEGTMLFVSHDRHFLAALSNRVLELTPDGIHQYGGGYTEYVERTGQEAPGLHAA	not soluble
MAESYEEWKSFALKLDEETGAQEWKFDNSSPYFDAELISYRYTLLKRYRQQHRTLDLIYLLKEGLTYDIANIGHPMLFAATHVGTKKLIEDYIEEVSQSLAYIASSECITFQRKEKIEFFENCEKAYGQPALMFSGGATLGLFHTGVCKALIEQDLMPKVLSGSSAGAIMTGMLGISASEDIQNLLNGEQFFSDAFHFRKLRELIKGNGGIADVHYLKKFLIENLGDLTFEEAFKKSGLNINVAVAPYDATENPRIMNAIMTPNVLVWSAVLASCAVPVLFPPVRLTSKRYDGEHTPYMANTKWVDGSVRSDFPQERMARLYNLNYTIASQVNPHVVPFMQDDARRFRKDVLSWPERILRRQGKVLSMGLMDFTRQRLGAISPVRRLLDHGYGVVGQRYYGDVNIIAKYSLKHYAYTLQNPRPHLFKRLQREGERATWPKISSIETHARIGKTIQHCLEVLRFEEKKQQPESYYAEALEHHHHHH	soluble
